Source: publication doi:10.1101/2020.03.02.974154 (bioRxiv, 2020)

Target: the molecule itself
Assay: cryo-EM structure

B1: full-length chicken acid-sensing ion channel 1a (cASIC1a) (natural protein, Gallus gallus, UniProt Q1XA76 1-527, looked up)
chain: MMDLKVDEEEVDSGQPVSIQAFASSSTLHGISHIFSYERLSLKRVVWALCFMGSLALLALVCTNRIQYYFLYPHVTKLDEVAATRLTFPAVTFCNLNEFRFSRVTKNDLYHAGELLALLNNRYEIPDTQTADEKQLEILQDKANFRNFKPKPFNMLEFYDRAGHDIREMLLSCFFRGEQCSPEDFKVVFTRYGKCYTFNAGQDGKPRLITMKGGTGNGLEIMLDIQQDEYLPVWGETDETSFEAGIKVQIHSQDEPPLIDQLGFGVAPGFQTFVSCQEQRLIYLPPPWGDCKATTGDSEFYDTYSITACRIDCETRYLVENCNCRMVHMPGDAPYCTPEQYKECADPALDFLVEKDNEYCVCEMPCNVTRYGKELSMVKIPSKASAKYLAKKYNKSEQYIGENILVLDIFFEALNYETIEQKKAYEVAGLLGDIGGQMGLFIGASILTVLELFDYAYEVIKHRLCRRGKCRKNHKRNNTDKGVALSMDDVKRHNPCESLRGHPAGMTYAANILPHHPARGTFEDFTC
In the case of B1, the “stoichiometry N” value is reported as 3.
